Test results: paper PMC3070410

Target: T1, RepA hexameric replicative helicase (plasmid RSF1010, UniProt P20356 1-279)
T1 sequence: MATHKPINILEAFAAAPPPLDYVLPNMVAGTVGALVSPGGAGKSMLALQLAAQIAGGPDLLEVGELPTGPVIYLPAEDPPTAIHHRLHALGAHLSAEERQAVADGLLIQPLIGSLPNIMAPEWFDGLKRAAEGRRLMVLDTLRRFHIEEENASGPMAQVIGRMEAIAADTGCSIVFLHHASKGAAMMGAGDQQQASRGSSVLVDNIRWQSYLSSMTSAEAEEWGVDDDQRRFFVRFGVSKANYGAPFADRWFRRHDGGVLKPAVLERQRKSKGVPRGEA
Test: stopped-flow fluorescence anisotropy

## TTTTTTTTTTTTTTTTTTTT (ssDNA, 3' amino six-carbon linker residue) [dT(pT)19-Fl-3' (21-mer)]
  binding result: binds
